Source: patent US5246838A, “Processing of proteins” (priority 1990, dated 1993)

Key:
[1] = system: E. coli cells containing pSPB plasmids (beta-lactamase with the indicated signal peptide); test: Ampicillin resistance in E. coli carrying pSPB plasmids (colony formation); format: cell-based
Description: described in Materials and Methods. Resistance to ampicillin was defined
as the maximal concentration of the antibiotic at which 100% of the E.
coli cells could form colonies. Plasmids indicated by pSPA . . . contain
amylase with the indicated signal peptide, plasmids indicated by pSPB . .
. contain lactamase with the indicated signal peptide.

[2] = target: pre(A13i)-β-lactamase (B. subtilis; E. coli) (UniProt P62593)
[3] = target: pre(A2d)-β-lactamase (E. coli) (UniProt P62593)
[4] = target: pre(A2)-β-lactamase (E. coli) (UniProt P62593)
[5] = target: pre(A13i)-β-lactamase (B. subtilis; E. coli) (UniProt P62593); conditions: scale: % of all the
[6] = target: pre(A42)-β-lactamase (E. coli) (UniProt P62593)
[7] = target: truncated pre-β-lactamase (E.coli) (UniProt P62593)
[8] = target: wild-type TEM pre-β-lactamase (E.coli) (UniProt P62593)

In the case of `CC1(C)S[C@@H]2[C@H](NC(=O)[C@H](N)c3ccccc3)C(=O)N2[C@H]1C(=O)O` [ampicillin], the “E. coli amp. resist. (maximal concentration of the antibiotic at which 100% of the E. coli cells could form colonies)” value ([1]; E. coli containing pSPB-A2) is reported as 300 µg/mL, the “E. coli amp. resist. (maximal concentration of the antibiotic at which 100% of the E. coli cells could form colonies)” value ([1]; E. coli containing pSPB-A13) is reported as 300 µg/mL and the “E. coli amp. resist. (maximal concentration of the antibiotic at which 100% of the E. coli cells could form colonies)” value ([1]; E. coli containing pSPB-A13i) is reported as 100 µg/mL. For the same molecule, the “E. coli amp. resist. (maximal concentration of the antibiotic at which 100% of the E. coli cells could form colonies)” value ([1]; E. coli containing pSPB-A42) was 20 µg/mL, the “E. coli amp. resist. (maximal concentration of the antibiotic at which 100% of the E. coli cells could form colonies)” value ([1]; E. coli containing pSPB-A2d) was 500 µg/mL and the “E. coli amp. resist. (maximal concentration of the antibiotic at which 100% of the E. coli cells could form colonies)” value ([1]; E. coli containing pSPB-A42d) was 100 µg/mL.
B. subtilis SPase I (enzyme) gave a t50, time necessary to obtain equal amounts of the precursor and the mature forms, pulse-chase labeling in B. subtilis DB104 [2] of 6 min.
Work on “E.coli SPase I (signal peptidase I) (from UniProt P00803) (enzyme)” yielded a t50, time necessary to process 50% of the precursor, pulse-chase labeling in E.coli C600 [3] of under 1 min, a t50, time necessary to process 50% of the precursor, pulse-chase labeling in E.coli C600 [4] of 2.2 min and a relative amount of mature enzyme, pulse-chase labeling in E.coli C600 [5] of 6 to 7. It also gave a t50, time necessary to process 50% of the precursor, pulse-chase labeling in E.coli C600 [6] of 15 min, a fraction unprocessed truncated (P') lactamase, pulse-chase labeling, samples 15 s after the chase [7] of 63% and a fraction unprocessed wildtype (P) lactamase, pulse-chase labeling, samples 15 s after the chase [8] of 15%.
For S.typhimurium SPase I (enzyme), the fraction unprocessed truncated (P') lactamase, pulse-chase labeling, samples 15 s after the chase [7] was 60% and the fraction unprocessed wildtype (P) lactamase, pulse-chase labeling, samples 15 s after the chase [8] was 16%.
